According to paper PMC6123645:

Molecular target: cBid 126C-DAC (caspase-8 cleaved Bid, single cysteine 126C, labelled with DAC) (UniProt P70444)
Experiment: FRET or BRET

“Bax 126C-NBD S184E (phosphomimetic Bax, single cysteine 126C, labelled with NBD) (from UniProt Q07812 1-192) (natural protein)” gave a Kd of 33 nM.
